In experiment [1] the target is NTSR1-ELF (baculovirus construct with wild-type ICL3) (rat) (UniProt P20789).
For experiment [2], the target named is NTSR1-EL (baculovirus construct with wild-type ICL3) (rat) (UniProt P20789).

Chain of Gq protein (P50148 whole entry, looked up): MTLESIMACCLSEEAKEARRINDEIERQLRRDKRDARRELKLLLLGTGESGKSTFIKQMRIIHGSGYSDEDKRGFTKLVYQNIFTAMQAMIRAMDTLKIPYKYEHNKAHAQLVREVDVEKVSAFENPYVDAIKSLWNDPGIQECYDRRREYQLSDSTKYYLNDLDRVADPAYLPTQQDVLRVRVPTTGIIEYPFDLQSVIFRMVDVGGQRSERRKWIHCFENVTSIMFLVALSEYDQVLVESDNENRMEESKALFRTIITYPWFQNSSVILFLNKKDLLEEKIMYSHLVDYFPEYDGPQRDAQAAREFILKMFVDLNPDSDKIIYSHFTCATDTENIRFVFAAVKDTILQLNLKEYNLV

Turning to “Gq protein (from UniProt P50148 1-359) (complex)”, the Fold-stimulation by NTS GTPγS: GDP/[35S]GTPγS exchange on Gq at saturating NTS compared to no ligand, urea-washed P2 insect cell membranes and purified Gq protein in experiment [1] worked out at 5.6 fold; in experiment [2] it was 3.3 fold.

In turn, neurotensin (NTS) (peptide) registered an EC50 (NTS) GTPγS, half maximal effective concentration of NTS on the exchange of GDP for GTPγS on Gq in experiment [2] of 5.5 nM.

For the origin of these results see article PMC5141500.
